Experimental data reported in article PMC1885668.

Columns and labels:
TREX2DD = target: T1, TREX2DD (human, UniProt Q9BQ50 1-236, E29A;K59A;D94A;R107A;E191A); assay: SPR
T1 sequence: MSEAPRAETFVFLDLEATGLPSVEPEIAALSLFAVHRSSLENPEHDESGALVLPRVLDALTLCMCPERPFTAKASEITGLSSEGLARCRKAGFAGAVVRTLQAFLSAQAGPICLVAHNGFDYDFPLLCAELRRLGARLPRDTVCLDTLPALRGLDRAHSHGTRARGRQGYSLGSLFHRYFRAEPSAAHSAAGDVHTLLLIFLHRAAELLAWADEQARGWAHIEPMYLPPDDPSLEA

TREX2BD = target: T2, TREX2BD (human, UniProt Q9BQ50 1-236, R163A;R165A;R167A); assay: SPR
T2 sequence: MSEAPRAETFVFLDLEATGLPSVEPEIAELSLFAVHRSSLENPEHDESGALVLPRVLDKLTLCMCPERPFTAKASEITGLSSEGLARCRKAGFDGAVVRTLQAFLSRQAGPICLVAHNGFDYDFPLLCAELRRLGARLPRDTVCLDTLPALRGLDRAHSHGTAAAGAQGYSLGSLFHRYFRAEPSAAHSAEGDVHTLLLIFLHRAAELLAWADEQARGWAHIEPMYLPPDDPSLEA

Binder: GTATGAGCTGCAGTTCCTCAGCAT (ssDNA) [Biotin-mTX1-322 (24-mer)]
- binding result (TREX2DD): no binding
- binding result (TREX2BD): no binding
